Molecular target: T1, GST-tagged full-length TAF15 (human, UniProt Q92804 1-592)
T1 construct: TAF15, human, full length, cloned into pGEX-6p-1; Immobilised on glutathione-Sepharose 4B in the pull-down; also called GST-TAF15; source: E. coli BL21, purified (Glutathione Sepharose)
Test: pull-down; GST pull-down: GST-TAF15 or GST alone immobilised on glutathione-Sepharose 4B, His-NOP58 added, 1 h at 4 °C in 50 mM Tris-HCl pH 7.5, 150 mM NaCl, 10 mM MgCl2, 10% glycerol, 1% Triton X-100, 1 mM DTT, 1% BSA; western blot; also with in vitro transcribed INHEG
Conditions: both partners purified

T1 sequence (Q92804 whole entry): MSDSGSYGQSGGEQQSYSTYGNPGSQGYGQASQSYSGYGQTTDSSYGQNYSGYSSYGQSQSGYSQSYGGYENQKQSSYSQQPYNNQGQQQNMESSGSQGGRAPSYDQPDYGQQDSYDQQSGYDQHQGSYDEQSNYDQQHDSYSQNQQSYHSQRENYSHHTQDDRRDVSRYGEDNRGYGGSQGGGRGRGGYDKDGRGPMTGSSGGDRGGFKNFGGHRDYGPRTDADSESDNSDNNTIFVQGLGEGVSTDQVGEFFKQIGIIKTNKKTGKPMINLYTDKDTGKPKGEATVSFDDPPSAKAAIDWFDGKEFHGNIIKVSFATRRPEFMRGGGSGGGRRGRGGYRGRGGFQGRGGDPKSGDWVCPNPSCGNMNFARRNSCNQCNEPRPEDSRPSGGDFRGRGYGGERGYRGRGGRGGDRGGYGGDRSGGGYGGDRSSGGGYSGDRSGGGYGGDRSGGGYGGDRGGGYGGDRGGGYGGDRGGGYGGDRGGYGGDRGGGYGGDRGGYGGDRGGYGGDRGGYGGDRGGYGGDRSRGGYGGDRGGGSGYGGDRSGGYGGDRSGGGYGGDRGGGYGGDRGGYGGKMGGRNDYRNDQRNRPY

binding result: binds
B1: His-tagged full-length NOP58 (natural protein, human, UniProt Q9Y2X3 1-529, looked up)
chain: MLVLFETSVGYAIFKVLNEKKLQEVDSLWKEFETPEKANKIVKLKHFEKFQDTAEALAAFTALMEGKINKQLKKVLKKIVKEAHEPLAVADAKLGGVIKEKLNLSCIHSPVVNELMRGIRSQMDGLIPGVEPREMAAMCLGLAHSLSRYRLKFSADKVDTMIVQAISLLDDLDKELNNYIMRCREWYGWHFPELGKIISDNLTYCKCLQKVGDRKNYASAKLSELLPEEVEAEVKAAAEISMGTEVSEEDICNILHLCTQVIEISEYRTQLYEYLQNRMMAIAPNVTVMVGELVGARLIAHAGSLLNLAKHAASTVQILGAEKALFRALKSRRDTPKYGLIYHASLVGQTSPKHKGKISRMLAAKTVLAIRYDAFGEDSSSAMGVENRAKLEARLRTLEDRGIRKISGTGKALAKTEKYEHKSEVKTYDPSGDSTLPTCSKKRKIEQVDKEDEITEKKAKKAKIKVKVEEEEEEKVAEEEETSVKKKKKRGKKKHIKEEPLSEEEPCTSTAIASPEKKKKKKKKRENED
notes: NOP58, human, full length, cloned into pET-28a; also called His-NOP58; source: E. coli BL21, purified (Ni-NTA)

Reference: paper PMC10657414, “LncRNA INHEG promotes glioma stem cell maintenance and tumorigenicity through regulating rRNA 2’-O-methylation” (Nature Communications, 2023)
